Our source for the binding result and Kd values is patent US20120041056A1, “NUCLEIC ACIDS SPECIFICALLY BINDING WITH HUMAN FACTOR VII/VIIA AND USES THEREOF” (LFB BIOTECHNOLOGIES, published 2012).

Data set [1] addresses T1, Factor VII/VIIa (FVII HP, plasma-derived) (Homo sapiens, UniProt P08709;P08709 P08709:61-212,P08709:213-466). Briefly: SPR; FVII immobilized, aptamer 1 uM; much higher affinity than other family 2 members; 10 mM CaCl2, 4 mM MgCl2, pH 7.5. The settings on record: tags: none; purified from human plasma (98-99% purity). Here is the method: A series of 27 nucleic aptamers of the invention (purity: 99%), having a length ranging from 43 to 66 nucleotides depending on the aptamers, were diluted in running buffer (50 mM Tris, 50 mM NaCl, 10 mM CaCl₂, 4 mM MgCl₂, pH 7.5) so as to obtain three aptamer samples. Each aptamer tested was injected at a final concentration of 1 μM in the running buffer.
Each sample was injected sequentially onto the same chip (solid substrate) containing the immobilized human FVII. Controls are obtained by injecting blanks containing only running buffer. All the injections were carried out with a flow rate of 30 μl/min for 60 sec; after the injection, running buffer was injected onto the chip at an identical flow rate, for 120 sec. Elution buffer (5 mM EDTA) was then injected for 60 sec with a flow rate of 30 μl/min in order to detach the aptamer from the immobilized human FVII. The chip makes it possible to study, in real time, the formation and the breaking of the interactions between the immobilized human FVII and each of the aptamers tested, by means of surface plasmon resonance (SPR). Binding to the immobilized human FVII is reflected by an increase in the signal, in resonance units (RU), recorded by the apparatus (figure E1). These analyses are carried out with the RPS Biacore T100 apparatus (GE). The modeling of the interactions recorded is carried out using the Biaevaluation software (GE).
In general terms: Surface plasmon resonance follows binding to a sensor surface in real time, without labels.

Data set [2] deals with T1, Factor VII/VIIa (FVII HP, …). Briefly: pulldown; affinity chromatography on streptavidin gel; CaCl2/MgCl2 buffer pH 7.5, eluted with 10 mM EDTA; Mapt2 core in low affinity group by SPR (Example 11). Particulars: tags: none; purified from human plasma (98-99% purity); label: 5'-biotin. Here is the method:
Gel equilibration: 0.050 M Tris-HCl, 0.010 M CaCl₂, 0.05 mM MgCl₂, pH 7.5, elution: 0.020 M Tris-HCl, 0.010 M EDTA, pH 7.5, 240 μg of human plasma FVII purified to 98% is injected with a flow rate of 0.5 ml/min in equilibration buffer.

For data set [3] the target is unchanged. Briefly: SPR; FVII immobilized; 10 mM CaCl2, 4 mM MgCl2, pH 7.4; eluted by 5 mM EDTA. Particulars: tags: none; purified from human plasma (98-99% purity). The method, then: Each sample was injected sequentially onto the same chip (solid substrate) containing the immobilized human FVII. Controls were obtained by injecting blanks containing only running buffer. All the injections were carried out with a flow rate of 30 μl/min for 60 sec; after the injection, running buffer was injected onto the chip at an identical flow rate, for 120 sec. Elution buffer (5 mM EDTA) was then injected for 60 sec with a flow rate of 30 μl/min in order to detach the […]. The chip makes it possible to study, in real time, the formation and the breaking of the interactions between the immobilized human FVII and each of the aptamers Mapt2, Mapt3 and Mapt7 tested, by means of surface plasmon resonance (SPR). Binding to the immobilized human FVII is reflected by an increase in the signal, in resonance units (RU), recorded by the apparatus (FIG. 2). These analyses are carried out with the RPS Biacore T100 apparatus (GE). The modeling of the interactions recorded is carried out using the Biaevaluation software (GE).

For data set [4], the target named is Factor VII, recombinant rabbit (Oryctolagus cuniculus, UniProt P98139;P98139 P98139:40-191,P98139:192-444). The data set can be described thus: SPR; no binding to rabbit FVII/VIIa. Particulars: label: 5'-biotin. Here is the method:
Each sample was injected sequentially onto the same chip (solid substrate) containing the Mapt2 aptamer immobilized by means of a biotin-streptavidin interaction. Controls are obtained by injecting blanks containing only running buffer. Signals corresponding to the background noise are obtained by injecting the same samples onto the reference cell containing the immobilized some nucleic acids or other, these signals are subtracted from the signals obtained on the active cell. All the injections were carried out with a flow rate of 30 μl/min for 60 sec; after the injection, running buffer was injected onto the chip at an identical flow rate, for 120 sec. Elution buffer (15 mM EDTA) was then injected for 30 sec with a flow rate of 30 μl/min in order to detach the human or rabbit FVII from the aptamer. The chip makes it possible to study, in real time, the formation and the breaking of the interactions between the FVII HP and the immobilized aptamer by means of surface plasmon resonance (SPR). Binding to the immobilized aptamer is reflected by an increase in the signal, in resonance units (RU), recorded by the apparatus (FIG. 8). These analyses are carried out with the RPS Biacore T100 apparatus (GE).
The modeling of the interactions recorded is carried out using the Biaevaluation software (GE).

Data set [5] deals with Factor VII, rabbit plasma (hydroxyapatite eluate) (Oryctolagus cuniculus, UniProt P98139;P98139 P98139:40-191,P98139:192-444). Briefly: pulldown; affinity chromatography; 0.2% step yield in eluate, rabbit FVII not retained. The settings on record: tags: enriched from rabbit plasma; label: 5'-biotin. Here is the method:
Gel equilibration: 0.050 M Tris-HCl, 0.010 M CaCl₂, 0.05 mM […], pH 7.5, elution: 0.050 M Tris-HCl, 0.010 M EDTA, pH 7.5, 36 μg are injected into the gel with a contact time of 10 minutes. The elution is carried out by injecting 2 ml of elution buffer.
The fractions are analyzed for their amidolytic activity by chromogenic assay using a Stago kit according to the supplier's recommendations (factor VIIa StatClot kit). The amidolytic activity is then converted to pg of FVII contained in said fraction.

The target of data set [6] is T1, Factor VII/VIIa (FVII HP, …). The data set can be described thus: SPR; aptamer immobilized; 50 mM Tris, 50 mM NaCl, 10 mM CaCl2, 4 mM MgCl2, pH 7.4; about 1:1 stoichiometry (Example 4). The settings on record: tags: none; purified from human plasma (98-99% purity); label: 5'-biotin.

For CCGCACGCTACGCGCATGAACCCGCGCACACGACTTGAAGTAGC (ssDNA) [Mapt2.2 core sequence], the binding result in data set [1] is reported as “binds”.
Turning to CCGCACACCACGCGCATAATCCCGCGCACACGACTTGAAGTAGC (ssDNA, 5'-biotin without spacer) [Mapt-2 core (5'-biotin)], the binding result in data set [2] is “binds”.
For AGTCTCCATGTTGCGAACCGAATGGTAAGGGGATCGTACACTAC (ssDNA) [Mapt7], the binding result in data set [3] was “binds”.
Still for that read-out and setting: the result for CCGGAGACGCGCAGCTCCTATACATGCGCACATGACTTGAAGTC (ssDNA) [Mapt3] reads “binds”.

B1: Mapt2 (biotin-PEG) (ssDNA)
DNA: GGGAGATAGCCACGACCTATGCAGCCAGCCGCAGTGTAAGTGAATGCAGACATGGTCTAAGTGTCCAGGCTGTGCGAAAGC
modifications: 5' spacer of 4 PEG(C18) and terminal biotin
One may read the Kd as the free concentration of one partner at which half of the binding sites on the other are occupied at equilibrium, for simple one-to-one binding. A lower Kd goes with higher affinity. Turning to B1, the binding result in data set [4] and in data set [5] was “no binding” in each case. Binding in data set [6] was characterised by a dissociation constant (Kd) of 99.9 nM.

B2: Mapt2 (ssDNA)
DNA: B1 DNA
B2: in data set [3], the binding result was “binds”.
